Patent US20250277027A1 (POPULAS BIOPHARMACEUTICAL WUHAN, published 2025)

Tests used:
polypeptide C9797BL020-7 [1] = molecular target: T1, polypeptide C9797BL020-7; test: affinity sorting, kinetic fit in RU, antibody as analyte solution
T1 construct: also called antigen peptide
T1 peptide: CDSVNVDKQPKYEYS

SCN9A-4-B2M = test: SPR, ligand SCN9A-4-B2M, analyte 5C12D2C8, 1:1 binding fit; analyte at 12.5 to 400 nM per paragraph 79
polypeptide C9797BL020-7 [2] = molecular target: T1, polypeptide C9797BL020-7; test: SPR, antibody at 12.5, 25, 50, 100, 200 and 400 nM

Kd (polypeptide C9797BL020-7 [1]): 4.55 nM
koff (polypeptide C9797BL020-7 [1]): 0.00023 s⁻¹
kon (polypeptide C9797BL020-7 [1]): 50600 M⁻¹ s⁻¹
kon (SCN9A-4-B2M): 28100 M⁻¹ s⁻¹
Kd (polypeptide C9797BL020-7 [2]): 8.78 nM
koff (polypeptide C9797BL020-7 [2]): 0.000247 s⁻¹
B1: monoclonal antibody 5C12D2C8 (antibody, V domains shown)
VH: EVQLVESGGDLVKPGGSLKLSCAASGFTFSSGGMSWVRQTPDKRLEWVATISNGGGETYYEDSVKGRFTISRDNAKNTLYLQMNSLKSEDTAMYYCAREEYEGTWYEDVWGAGTTVTVSS
VL: DVLMTQTPLSLPVSLGDQASISCTSSQSGVHSNGNTELEWYLQKPGQSPKLLIYKVSNRTSGVPDRFSGSGSGTDFTLKISRVEAEDLGVYYCGQGSHVGRTFGGGTKLEIKR
